Measurements published in article PMC7547722, “A versatile soluble siglec scaffold for sensitive and quantitative detection of glycan ligands” (Nature Communications, 2020).
Values joined by “and” are separate entries in the source; they are usually repeats but may differ in a detail not shown here. Equal values may be shown once.

B1: Sig-16 R120A: Siglec-16-Fc essential arginine mutant (protein, UniProt A6NMB1 17-434, looked up, variant R120A)
extracellular domain: NKDPSYSLQVQRQVPVPEGLCVIVSCNLSYPRDGWDESTAAYGYWFKGRTSPKTGAPVATNNQSREVAMSTRDRFQLTGDPGKGSCSLVIRDAQREDEAWYFFAVERGSRVRHSFLSNAFFLKVTALTQKPDVYIPETLEPGQPVTVICVFNWAFKKCPAPSFSWTGAALSPRRTRPSTSHFSVLSFTPSPQDHDTDLTCHVDFSRKGVSAQRTVRLRVASLELQGNVIYLEVQKGQFLRLLCAADSQPPATLSWVLQDRVLSSSHPWGPRTLGLELPGVKAGDSGRYTCRAENRLGSQQRALDLSVQYPPENLRVMVSQANRTVLENLRNGTSLRVLEGQSLRLVCVTHSSPPARLSWTWGEQTVGPSQPSDPGVLQLPRVQMEHEGEFTCHARHPLGSQRVSLSFSVHCKSGPMTG
modifications: extracellular domain fused to human IgG1 Fc
notes: Siglec-16-Fc essential arginine mutant
B2: Sig-3 R119A: CD33-Fc essential arginine mutant (protein, UniProt P20138 18-259, looked up, variant R119A)
extracellular domain: DPNFWLQVQESVTVQEGLCVLVPCTFFHPIPYYDKNSPVHGYWFREGAIISRDSPVATNKLDQEVQEETQGRFRLLGDPSRNNCSLSIVDARRRDNGSYFFAMERGSTKYSYKSPQLSVHVTDLTHRPKILIPGTLEPGHSKNLTCSVSWACEQGTPPIFSWLSAAPTSLGPRTTHSSVLIITPRPQDHGTNLTCQVKFAGAGVTTERTIQLNVTYVPQNPTTGIFPGDGSGKQETRAGVVH
modifications: extracellular domain fused to human IgG1 Fc
notes: CD33-Fc essential arginine mutant

Tests used:
[1] = test system: U937 cells; experiment: Flow cytometry, Siglec-Fc pre-complexed with Strep-Tactin, streptavidin or anti-human IgG1; assay type: cell-based; conditions: U937; Strep-Tactin-AF647; replicates, Fig. 2
Experimental: (§1) Strep-Tactin-AF647 (0.55 μg/mL, 0.57 pmol), streptavidin (Biolegend), or anti-human igG1 (Biolegend) was added to Siglec supernatant (50 μL) or purified Siglec and allowed to sit at 4 °C for 15 min. After, the pre-complexed solution was added to cells in a 96-well U-bottom plate for 30 min at 4 °C. After, 200 μL of flow buffer (HBSS, 0.1% BSA, 5 mM EDTA) was added and the plate was spun down at 300 rcf for 5 min. The cells were resuspended in 200 μL of flow buffer and processed through the flow cytometer.
(§2) Flow cytometry was performed on a BD LSRFortessa™ X-20 cell analyzer using BD FACSDiva Software Version 8.0.1 and data was processed using FlowJo LLC. Version 9.9.6 and Graphpad Prism 8. The live, single cell populations were gated out with two gates to obtain the median fluorescence intensity (MFI), which indicates binding of the Siglec-Fc-secondary complex to the cell surface. Control cells that were incubated with Strep-Tactin-AF647 (0.55 μg/mL, 0.57 pmol) was used to determine the baseline fluorescence. Number of cells (# cells) plotted indicates percentage of max (% max).

[2] = test system: A549 cells; experiment: Flow cytometry, pre-complexed Siglec-Fc binding; assay type: cell-based; conditions: Strep-Tactin-AF647, replicates
Experimental: as §1, §2

[3] = test system: HEK293T cells; experiment: Flow cytometry, pre-complexed Siglec-Fc binding; assay type: cell-based; conditions: HEK; Strep-Tactin-AF647; replicates
Experimental: as §1, §2

[4] = test system: HuH7 cells; experiment: Flow cytometry, pre-complexed Siglec-Fc binding; assay type: cell-based; conditions: Strep-Tactin-AF647, replicates
Experimental: as §1, §2

[5] = test system: Jurkat cells; experiment: Flow cytometry, pre-complexed Siglec-Fc binding; assay type: cell-based; conditions: Strep-Tactin-AF647, replicates
Experimental: as §1, §2

[6] = test system: K562 cells; experiment: Flow cytometry, pre-complexed Siglec-Fc binding; assay type: cell-based; conditions: Strep-Tactin-AF647, replicates
Experimental: as §1, §2

[7] = test system: BT549; experiment: Flow cytometry, pre-complexed Siglec-Fc binding to breast cancer cell line; assay type: cell-based; conditions: Strep-Tactin-AF647, replicates
Experimental: as §1, §2

[8] = test system: HS578T; experiment: as above; assay type: cell-based; conditions: Strep-Tactin-AF647, replicates
Experimental: as §1, §2

[9] = test system: MCF7; experiment: as above; assay type: cell-based; conditions: Strep-Tactin-AF647, replicates
Experimental: as §1, §2

[10] = test system: MDA-MB-231; experiment: as above; assay type: cell-based; conditions: Strep-Tactin-AF647, replicates
Experimental: as §1, §2

[11] = test system: MDA-MB-468; experiment: as above; assay type: cell-based; conditions: Strep-Tactin-AF647, replicates
Experimental: as §1, §2

[12] = test system: T47D; experiment: as above; assay type: cell-based; conditions: Strep-Tactin-AF647, replicates
Experimental: as §1, §2

[13] = test system: ZR-75-1; experiment: as above; assay type: cell-based; conditions: Strep-Tactin-AF647, replicates
Experimental: as §1, §2

[14] = test system: basophils (CCR3+); experiment: Siglec ligands on peripheral blood immune cells, flow cytometry; assay type: cell-based, human; parameters: key: median fluorescence intensity (MFI) of Siglec-Fc complex binding; conditions: replicate values
Experimental: (§3) Siglec supernatant (50 μL) or purified Siglec was incubated with cells in a 96-well U-bottom plate for 30 min at 4 °C. Following the incubation, 200 μL of flow buffer (HBSS, 0.1% BSA, 5 mM EDTA) was added and the plate was spun down at 300 rcf for 5 min. Strep-Tactin-AF647 (0.55 μg/mL, 50 μL, 0.57 pmol), streptavidin (Biolegend), or anti-human IgG1 (Biolegend) was added to the cells and incubated for 30 min at 4 °C. After, 200 μL of flow buffer (HBSS, 0.1% BSA, 5 mM EDTA) was added and the plate was spun down at 300 rcf for 5 min. The cells were resuspended in 200 μL of flow buffer and processed through the flow cytometer.
as §1
(§4) For human splenocytes, the sample was homogenized in media through a 40 µm filter (Corning) under sterile conditions. Samples were centrifuged at 300 rcf for 5 min. The resulting pellet from the spleen sample and whole human blood were treated with RBC lysis buffer (7 min) and centrifuged at 300 rcf and the RBC lysis was repeated twice more until no RBC remained in the pellet. Samples were treated with human Fc-receptor blocking agent (TruStain FX, Biolegend) in flow buffer (HBSS, 0.1% BSA, 5 mM EDTA). For analysis, the following cocktail was used: hSig8 (PerCP/Cy5.5, clone 7C9, Biolegend cat. no. 347108, 1:200), hCD123 (PE/Cy7, clone 6H6, Biolegend cat. no. 306010, 1:200), hCD19 (PE, clone SJ25C1, Biolegend cat. no. 363004, 1:200), hCD3 (FITC, BD Pharmingen cat. no. 555332, 1:50), hCD14 (BV605, clone M5E2, BD Horizon cat. no. 564056, 1:200), hCD15 (BUV395, clone HI98, BD Horizon cat. no. 563872, 1:200), hCD56 (BV510, clone NCAM16.2, BD Horizon cat. no. 563041, 1:200). For human peripheral blood samples, we additionally used hHLA-DR (APC-Cy7, clone L243, Biolegend cat. no. 307618, 1:200). Pre-complexed Siglec-Fc/Strep-Tactin-AF647 (described above) was added to the antibody cocktail, added to cells, and allowed to stain at 4 °C for 45 min. The cells were then centrifuged at 300 rcf for 5 min and resuspended in flow buffer containing 1 µg/mL propidium iodide prior to analysis by flow cytometry.
as §2

[15] = test system: eosinophils (Siglec-8+); experiment: as above; assay type: cell-based, human; parameters: key: median fluorescence intensity (MFI) of Siglec-Fc complex binding; conditions: replicate values
Experimental: as §3, §1, §4, §2

[16] = test system: monocytes (CD14+); experiment: as above; assay type: cell-based, human; parameters: key: median fluorescence intensity (MFI) of Siglec-Fc complex binding; conditions: replicate values
Experimental: as §3, §1, §4, §2

[17] = test system: B-cells (CD19+); experiment: as above; assay type: cell-based, human; conditions: replicate values
Experimental: as §4, §2

[18] = test system: NK cells (CD56+); experiment: as above; assay type: cell-based, human; conditions: replicate values
Experimental: as §4, §2

[19] = test system: T-cells (CD3+); experiment: as above; assay type: cell-based, human; conditions: replicate values
Experimental: as §4, §2

[20] = test system: cDCs (CD123dim/HLA-DR+); experiment: as above; assay type: cell-based, human; conditions: cDC; replicate values
Experimental: as §4, §2

[21] = test system: neutrophils (CD15+); experiment: as above; assay type: cell-based, human; conditions: replicate values
Experimental: as §4, §2

[22] = test system: pDCs (CD123high/HLA-DR+); experiment: as above; assay type: cell-based, human; conditions: pDC; replicate values
Experimental: as §4, §2

[23] = test system: neutrophils (CD15+), human splenocytes; experiment: Siglec-Fc (CD22-Fc V1/V2, with or without Fc receptor block) binding to splenocytes, flow cytometry; assay type: cell-based; conditions: Suppl Fig 12; three replicate columns
Experimental: as §4, §2

[24] = test system: B-cells (CD19+), human splenocytes; experiment: Siglec-Fc binding to splenocytes, flow cytometry; assay type: cell-based; conditions: Suppl Fig 12; three replicate columns
Experimental: as §4, §2

[25] = test system: NK cells (CD56+), human splenocytes; experiment: Siglec-Fc binding to splenocytes, flow cytometry; assay type: cell-based; conditions: Suppl Fig 12; three replicate columns
Experimental: as §4, §2

[26] = test system: T-cells (CD3+), human splenocytes; experiment: Siglec-Fc binding to splenocytes, flow cytometry; assay type: cell-based; conditions: Suppl Fig 12; three replicate columns
Experimental: as §4, §2

[27] = test system: monocytes (CD14+), human splenocytes; experiment: Siglec-Fc binding to splenocytes, flow cytometry; assay type: cell-based; conditions: Suppl Fig 12; three replicate columns
Experimental: as §4, §2

Molecule	binding of pre-complexed Siglec-Fc (MFI) [1]	binding of pre-complexed Siglec-Fc (MFI) [2]	binding of pre-complexed Siglec-Fc (MFI) [3]	binding of pre-complexed Siglec-Fc (MFI) [4]	binding of pre-complexed Siglec-Fc (MFI) [5]	binding of pre-complexed Siglec-Fc (MFI) [6]	binding of pre-complexed Siglec-Fc (MFI) [7]	binding of pre-complexed Siglec-Fc (MFI) [8]	binding of pre-complexed Siglec-Fc (MFI) [9]	binding of pre-complexed Siglec-Fc (MFI) [10]	binding of pre-complexed Siglec-Fc (MFI) [11]	binding of pre-complexed Siglec-Fc (MFI) [12]	binding of pre-complexed Siglec-Fc (MFI) [13]	Siglec-Fc binding (Figure 3d) [14]	Siglec-Fc binding (Figure 3d) [15]	Siglec-Fc binding (Figure 3d) [16]	Siglec-Fc binding (Figure 3d) [17]	Siglec-Fc binding (Figure 3d) [18]	Siglec-Fc binding (Figure 3d) [19]	Siglec-Fc binding (Figure 3d) [20]	other results
B1	90.2 and 97.8 and 102	103 (2×) and 108	70.6 and 77.5 and 78.9	131 and 130 and 128	74.2 and 80.5 and 83	80.4 and 84.2 and 88.7	124 and 130 and 128	116 and 119 and 110	102	111 and 118 and 117	81.8 and 84.5 and 83.4	75.5 and 80.8 and 81.8	171 and 183 and 144	82.2 and 51.9 and 97	41.1 and 56.9 and 14.4	46.2 and 59 and 12.8	32.1 and 52.6 and -2.57	38.5 and 45.7 and 13.8	25.7 and 12.5 and 15.5	66.8 and -25.7 and 30.8	Siglec-Fc binding (Figure 3d) [21]: 44.9 and 39.4 and 8.1; Siglec-Fc binding (Figure 3d) [22]: 74.5 and -8.98 and 57.8; Binding, Neutrophils [23]: 16.1 and 20.7 and 14.4; Binding, B-cells [24]: 9.76 and 13.2 and 11.5; Binding, NK [25]: -1.72 and -0.57 and 2.3; Binding, T-cells [26]: -5.17 and -4.02 and -2.3; Binding, Monocytes [27]: 17.2 and 15.5 and 13.2
B2	103 and 139 and 125	196 and 195 and 188	86.5 and 94.1 and 92.2	85.3 and 88.8 and 87.9	101 and 105 and 109	73.5 and 79.6 and 81.1	140 and 148 and 151	127 (2×) and 130	107 and 105 and 113	133 (2×) and 138	85.3 and 88 and 88.8	88.8 and 95.2 (2×)	212 and 223 and 240	73.2 and 10.3 and 39.8	15.4 and -50.1 and 11.6	74.5 and -10.3 and 64.2	147 and 5.13 and 27	3.81 and -14.1 and 12.8	11.6 and -14.1 and 8.98	28.2 and -2.85 and 34.7	Siglec-Fc binding (Figure 3d) [21]: 27 and -33.4 and 14.1; Siglec-Fc binding (Figure 3d) [22]: 43.6 and 23.1 and 53.9; Binding, Neutrophils [23]: 20.7 and 30.4 and 24.9; Binding, B-cells [24]: 24.9 and 27 and 31.3; Binding, NK [25]: 16.9 and 14.2 and 13.6; Binding, T-cells [26]: 9.87 and 7.5 and 8.87; Binding, Monocytes [27]: 22.5 and 51.6 and 43.8
